In the supplement of paper PMC9732359:
± gives the uncertainty stated by the source.

Experiment: protein stability index of a GFP-peptide fusion (yeast GPS) (PSI 1-4); higher = more stable; sorted into four equal gates, so the index is relative within each strain
Procedure, shortened: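 Plasmids isolated from each sorting gate were PCR-amplified and Illumina-sequenced, and barcodes assigned the reads to strains. The gates, four of equal size, were set by GFP/Cherry fluorescence ratio on mid-log cultures in leucine-free medium. These cultures were yeast carrying a pooled library of tiled 17-residue yeast protein peptides fused downstream of GFP on a plasmid that also expresses Cherry. The protein stability index is the sum of every gate's read frequency times its gate number.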

| Sequence | protein stability index (doa10∆) | protein stability index (pdr5∆) | protein stability index (san1∆) | protein stability index (ubr1∆) |
| --- | --- | --- | --- | --- |
| CSFITQDKMFVSNPIRK [FAS1] | 1.37 ± 0.081 | 1.3 ± 0.073 | 1.25 ± 0.11 | 1.22 ± 0.042 |
| KTCIQGINSPLSSVALR [YJL039C/NUP192] | – | 1.41 ± 0.25 | – | – |
| DWQMMTSPVTGATEKRK [CSL4] | 2.44 ± 0.07 | 2.03 ± 0.11 | 2.3 ± 0.12 | 1.52 ± 0.062 |
| THEDLPKEVDGLEVGPV [IRR1] | 3.21 ± 0.091 | 3.35 ± 0.11 | 3.06 ± 0.094 | 3.18 ± 0.086 |
| ITSDALEGITTTIDSLN [SMC3] | 2.45 ± 0.062 | 2.93 ± 0.084 | 2.9 ± 0.08 | 2.99 ± 0.07 |
| GTLWAHVLKTVDYGGAE [SNU114] | 1.44 ± 0.084 | 1.32 ± 0.057 | 1.65 ± 0.16 | 1.36 ± 0.057 |
| DQIEKLREVVELPLLSP [RPT1] | 2.76 ± 0.075 | 3 ± 0.054 | 2.87 ± 0.061 | 2.94 ± 0.073 |
| SDLLVAPPLENENSNCL [YML103C/NUP188] | 3 ± 0.095 | 3.28 ± 0.1 | 3.25 ± 0.14 | 3.18 ± 0.11 |
| VSLIKKYKLISRIVEIF [YML103C/NUP188] | 1.34 ± 0.054 | 1.94 ± 0.049 | 1.64 ± 0.067 | 1.46 ± 0.054 |
| SEVANNGLIISWSNGKI [RRP42] | 2.28 ± 0.13 | 1.66 ± 0.054 | 3.03 ± 0.091 | 2.54 ± 0.14 |
| RIYTNSFIDIMEVLGIE [RPO21] | 2.84 ± 0.059 | 2.94 ± 0.052 | 3.02 ± 0.045 | 2.81 ± 0.041 |
| ADKVYTKENLEVSGENV [QCR2] | 3.44 ± 0.1 | 3.59 ± 0.072 | 3.2 ± 0.092 | 3.28 ± 0.052 |
| QPKRNLSRYVKWPEYVR [RPL8A] | 2.87 ± 0.096 | 2.98 ± 0.046 | 3.06 ± 0.06 | 2.99 ± 0.066 |
| IGAELKREESESAAVYN [SNF2] | 2.99 ± 0.087 | 3.08 ± 0.091 | 2.84 ± 0.071 | 3.21 ± 0.071 |
| VPIKSSKSGRIFALVFS [RPN13] | 2.57 ± 0.14 | 2.41 ± 0.091 | 2.41 ± 0.096 | 2.63 ± 0.1 |
| GTYIQERNPSQRPQRRY [RPS10B] | 3.01 ± 0.052 | 3.1 ± 0.042 | 3.09 ± 0.033 | 3.23 ± 0.036 |
| DPQPFLKHVLQLIFRQQ [SNU114] | 1.38 ± 0.042 | 2.02 ± 0.052 | 2.44 ± 0.064 | 2.51 ± 0.038 |
| RSPEEIRRTFNIVNDFT [SKP1] | 1.36 ± 0.058 | 2.06 ± 0.094 | 1.53 ± 0.13 | 2.12 ± 0.04 |
| DLKEGLQDLSRYSRQFI [GRR1] | 3.07 ± 0.062 | 2.24 ± 0.058 | 3.02 ± 0.038 | 3.29 ± 0.035 |
| LKQDLKKISSFKSLIDE [YGL172W/NUP49] | 2.81 ± 0.052 | 2.79 ± 0.05 | 3.08 ± 0.04 | 3.06 ± 0.034 |
| FLNTPNNNINENELFND [SSN2] | 2.94 ± 0.059 | 3.06 ± 0.05 | 2.86 ± 0.054 | 2.88 ± 0.055 |
| KNTELSYDFLPLSNIKA [RPN12] | 3.13 ± 0.075 | 2.85 ± 0.074 | 3.08 ± 0.086 | 3.09 ± 0.068 |
| RQIRPIMERIKSSLSLR [ITC1] | 1.26 ± 0.06 | 1.65 ± 0.075 | 1.35 ± 0.087 | 1.42 ± 0.054 |
| LCSMLQEASQVTFIFGE [MED11] | 2.06 ± 0.053 | 2.74 ± 0.048 | 2.61 ± 0.055 | 2.56 ± 0.037 |
| FGNTSTSSAPAQNQGMF [YGL172W/NUP49] | 3.3 ± 0.15 | 3.4 ± 0.24 | – | – |
| LFNNHLNGILADEMGLG [SNF2] | 2.83 ± 0.11 | 2.64 ± 0.1 | 3.28 ± 0.068 | 2.59 ± 0.092 |
| LPLRLQFNEFIQIMANI [PGD1] | 1.52 ± 0.078 | 1.51 ± 0.088 | 1.28 ± 0.14 | 1.17 ± 0.084 |

| Sequence | protein stability index (doa10∆) | protein stability index (pdr5∆) | protein stability index (san1∆) | protein stability index (ubr1∆) |
| --- | --- | --- | --- | --- |
| PVTLAKVIKVLGRTGSR [RPS28A] | 1.96 ± 0.083 | 2.59 ± 0.077 | 2.09 ± 0.11 | 2.5 ± 0.13 |
| PIFDYIHIDALELAGMD [SIR3] | 1.63 ± 0.053 | 1.79 ± 0.054 | 2.05 ± 0.064 | 2.17 ± 0.092 |
| STFENRNVGKTLVNKST [RPS1A] | 2.91 ± 0.085 | 2.74 ± 0.059 | 3.09 ± 0.055 | 3.14 ± 0.068 |
| FPESIWKDFTVEIAFLF [YCG1] | 2.25 ± 0.06 | 2.43 ± 0.05 | 2.33 ± 0.067 | 2.29 ± 0.049 |
| KLSISNAASQQPTPRSA [GAL11] | 2.57 ± 0.083 | 2.61 ± 0.081 | 2.73 ± 0.058 | 2.91 ± 0.049 |
| FKSLIDEDLLDTQTFSV [YGL172W/NUP49] | 3.17 ± 0.17 | 3.05 ± 0.25 | – | 3.76 ± 0.26 |
| REDTPLSQNESTRASTV [ISW2] | 2.96 ± 0.067 | 3.11 ± 0.058 | 2.96 ± 0.052 | 2.97 ± 0.048 |
| DTADEAKTLIPSLNNKI [RPB4] | 2.95 ± 0.075 | 3.15 ± 0.078 | 3.1 ± 0.063 | 3.1 ± 0.078 |
| VSSESSDEAIIPVNKRR [SIR3] | 3.31 ± 0.15 | 2.98 ± 0.12 | 3.02 ± 0.1 | 3.22 ± 0.082 |
| KSKTSTGKERSKKRKLN [SNM1] | 3.1 ± 0.085 | 3.2 ± 0.097 | 3.644 ± 0.036 | 3.21 ± 0.09 |
| DADGDIDMGEDKENVPV [DPB4] | 3.12 ± 0.17 | 3.29 ± 0.13 | 3.01 ± 0.15 | 3.66 ± 0.13 |
| ASLVDYVQVRQPIFVAH [RPS5] | 1.99 ± 0.1 | 1.98 ± 0.069 | 2.1 ± 0.14 | 1.67 ± 0.11 |
| IQEFLVVIEKRRKKILN [GRR1] | 2.92 ± 0.091 | 2.74 ± 0.097 | 2.88 ± 0.083 | 2.94 ± 0.088 |
| PSLIQEEEEDTTTTANI [NUT1] | 3.04 ± 0.11 | 3.12 ± 0.16 | 3.18 ± 0.12 | 3.16 ± 0.19 |
| QVRKDLGNVIVPNILSL [NUT1] | 2.23 ± 0.1 | 2.55 ± 0.088 | 2.46 ± 0.093 | 2.62 ± 0.07 |
| LATAHIYLSRFLIKASV [SSN8] | 1.23 ± 0.042 | 1.34 ± 0.051 | 1.31 ± 0.16 | 1.07 ± 0.055 |
| NWYKSKKKAFTKYSAKY [RPL3] | 3.23 ± 0.16 | 3.25 ± 0.1 | 3.07 ± 0.079 | 3.01 ± 0.045 |
| AGIRPKFILALNDEGEP [RPN1] | – | 1.9 ± 0.14 | 2.72 ± 0.24 | 1.46 ± 0.073 |
| LCRQGHNMLNLLIHRKG [PRP8] | 2.33 ± 0.061 | 2.55 ± 0.068 | 2.31 ± 0.091 | 2.23 ± 0.041 |
| AEQLKISLSVHTLALEF [RRP46] | 2.1 ± 0.058 | 2.29 ± 0.044 | 2.37 ± 0.063 | 2.25 ± 0.048 |
| RDRKLITDKGTVDGRLY [YJL039C/NUP192] | 3.16 ± 0.12 | 3.22 ± 0.074 | 3.19 ± 0.071 | 3.17 ± 0.076 |
| HKCDELITLFNKGELET [RPO31] | 2.72 ± 0.095 | 3.15 ± 0.07 | 2.98 ± 0.094 | 2.92 ± 0.1 |
| QQQQQQQQQTSPPPQTH [SNF5] | 2.765 ± 0.011 | 2.862 ± 0.011 | 2.799 ± 0.01 | 2.824 ± 0.009 |
| LADRDEFIQDSAARGLS [ECM29] | 1.55 ± 0.092 | 1.31 ± 0.06 | 1.2 ± 0.14 | 2.01 ± 0.064 |
| KHEDFVEGISEVQARKS [RPT5] | 3.7 ± 0.24 | – | – | 3.41 ± 0.2 |
| QQEAKYRNNEPAGFTHK [YDL088C/ASM4] | 2.88 ± 0.052 | 2.98 ± 0.046 | 2.6 ± 0.059 | 2.83 ± 0.045 |
